Measured values: the nanobody polyreactivity screen of Harvey et al. (2022)

Assay: yeast display, Sf9 membrane polyspecificity reagent, FACS + sequencing; frameworks hold sequencing errors
Procedure, shortened: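 Polyreactivity labels are assigned by the sorting gate from which each nanobody was recovered. The gates were low and high (top ~1%), set on anti-HA fluorescence for expression and streptavidin fluorescence for reagent binding. Before sorting, galactose-induced (36–48 hours) yeast display cells were stained for 1 hour at 4 °C with 10% biotinylated, detergent-solubilized Sf9 membrane reagent.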

Sequence | polyreactivity (PSR sort gate)
QVKLVDSGGGLVQAGGSVGLSCAASGRIFPWYTMGWYRQAPGKERELVAVISSGGRTHYADSVKGRFTISRDNAKNTVYLQMYSLNPEDTAVYDCAAESRYQRYDYWGQGTQVTVSS | high polyreactivity
QVQLVDSGGCLVQAGGSLRLSCAASGRTDGINAMGWYRQAPGKERELVAAIDSIDGTTYYADSVKGRFTISRDNAKNTVYLQMNSLKQEDTAVYYCAAEFISSYDYWGQGTQVTVSS | high polyreactivity
QVQLVESGGGLVQAGGTLRLSCDASGSIFFWKAMGWYRQAPGKERELVAAISYTDGSTYYADSVKGRFTIPRDNAKNTVYLLMNSLKPEDTAVYYCAAAITPSYNGSEYDYWGQGTQVTVSS | low polyreactivity
QVQLVESGGVLVQAGGSLRLSCAASGRIFRYYAMGWYRQAPGKERELVAAIRYRSGGTYYADSVKGRFTISRDNAKNTVYLQMNSLKTEDTAVYYCNADKRLRGHGYDYWGEGTQVTVSS | high polyreactivity
QVQLVESGGGLVQAGGSLRLSCAASGSIFSRYAMGWSRQAPGKERELVAAISKSGGTTYYADSVKGRFTISRDNAKNTVYLQMNSLKPEDTAVYYCNAKRYRNGSIGMGYWGQGSQVTVSS | high polyreactivity
LVQLVESGGGLVQAGGSLRLICAAYGSIFALNSLGWYSQAPGKERELVAAISRGDGTKYEHTVKGRFTISRDNAKTTVYLQMTSLKPEYTAVYYCAKDYWFRWRWPYNHWGLGTQVTVSS | low polyreactivity
QVQLVESGGGLVQAGGSLRLSCAASGRIFGRYAMGWYRQAPGKEWELVAAISNGGTTTYADSVKGRFTLSRDNAKNTVYLQMNSLKPEDTAVYYCADDWSYKIYVIQRWYGVDYWGQGTQVTVSS | low polyreactivity
QVQLVESGGGLVQAGGSLRLSCAASGFIFIYYAMGWYRQAPGKERELVATINGITGSTYYADSVKGRFTISRDNAKNTVYLQMNSLKPEDTAVYYCAKVPRKYRAWMDYWGQGTQVTVSS | high polyreactivity
QVQHVESRGGLVQAGGSLRLSCAASGSIFFAYAMGWDRQGPGKEREFVAAISASGGSTSYADSVKGRFTISRDNAKNTVYLQMNSLKPEDTAVYYCATEHSVTTYDYWGQGTQVTVSS | low polyreactivity
QVQLVESGGGLVQAGGSLRLSCAASGSTFVGYAMGWYRQAPGKERELVAAISSSGSTNYADSVKGRFTISRDNAKNTVYLQMNSLKPEDTAVYYCAALYSYFWLIIDYGYWGQGTQVTVSS | low polyreactivity
QVQLVESGGGLVQAGGSLRLSCAASGLTFWWYAMGWYRQAPGKERELVAAISSSGGSTYYADSVKGRFTISRDIAKNTVYLQMNSLKPEDTAVYYCAVASWDNYWDPYGYWGQGTQVTVSS | low polyreactivity
QVQLVESGGGLVQAGGSLRLSCAASGRTFWFNDMGWYRQAPGKERELVAAISDTDGSTYYADSVKGLFTISRDNAKNTVYLQMNSLKPEDTAVYYCAAEAYYGYLYAYDYWGQGTQVTVSS | low polyreactivity
QVQLVESGGGLVQAGGSLRLSCAASGRTFGYNAMGWYRQAPGKERELVASISYSGGSTYYADSVKGRFTISRDTAKNTVYLQMNSLKPEDTAVYYCSAKYWYWQSPSKYYYWGQGTQVTVSS | high polyreactivity
QVQLVESGGGLVQAGGSLRLSCAASGSIFDYYTMGWYRQAPGKERELVASITQSGGSTYYADSVKGRFTISRDNAKNTVYLQMNSLIPEDTAVYYCAADFSIVKMDYWGQGTQVTVSS | low polyreactivity
QVQLVESVGGLVQAGGSLRLSCAASGITFWKYTMGWYRQAPGKERELVAAITGRGGSTYYADSVKGRFTISRDNAKNTVYLQMNSLKPEDTAVYYCAADPYHLQTRFSGLAEFYYWGQGTQVTVSS | low polyreactivity
QVQLVESGGGLVQAGGSLRLSCAASGSTFEANAMGWNRPAPWKERELVAVITWTGGSTYYADSVKGRFTISRDNAKNTVYLQMNSLKPEDTAVYYCAADGVVPGRFFWPAHEYDYWGQGTQVTVSS | low polyreactivity

Sequence | polyreactivity (PSR sort gate)
QVQLVESGGGLVQAGGSLRLICAASGSTFAGNTMGWYRQAPGKERELVATITSDGSTDYADSVKGRFTISRDNAKNTVYYQMNSLKAEDPAVYYCAKARGLSKMDSWGQGTQVTVSS | low polyreactivity
QVQLVESGGGLVQAGGILRLSCAASGRNFVHYAMGWYRQAPGKERELVAAISHSGGRTYYADSVKGRFTMSRDYAQNTVYLQMNSLKPEDTAVYYCNVRGSPAGTGLLDYWGQGTQVTVSS | high polyreactivity
QVQLVESGGGLVQAGGSLRLSCAASGRIFDQYAMGWYRQAPGKERELVAVISSSGTTNYADSVKGRFTISRDNAKNTVYLQMNSLKPEDTAVYYCAARRQSWFVAAHMDYWGQGTQVTVSS | low polyreactivity
QVQLVESGGGLVQAGGSLRLSCAASGRIFGIYTMGWYRQAPGKERELVAAITQGGGSTYYADSVKGRFTISRDNAKNTVYLQMNSLNPEDTAVYYCAARPKSPSGTRRYYWGQGTQVTVSS | high polyreactivity
QVQLVESGGCLVQAGRSLRLSCAASGIIFGGNVMGWYRQAAGKERQLVAAINWSVVTTYYADSVKGRFTISRDNAKNTVYLQMNSLKAADTAVYYCNKDYVTAPYFYFIDTMDYWGQGTQGTVSS | low polyreactivity
QVQLVESGGGLVQAGGSLRLTCAASGFIFRKYTMGWYRQAPGKERELVATLDSSGGSTYYADSVKGRFTISRDNAKNTVYLQMNSLKPEDTAVYYCNADLRELSPWYWYSGEMDYWGQGTQVTVSS | low polyreactivity
QVQLVESGGGLVQAGGSLRLSCAASGFTLGFNAMGWYRQAPGKERELVATISSSGGSTHYADSVKGRFTISRDNAKNTVYLQMNSLKPEDTAVYYCARDDSDRIWLEQSGYWGQGTQVTVSS | low polyreactivity
QVQRVESGGGLVQSGGSLRLSCAASGRIFYLYARGWNSQAPGKERELVAAITWSGGSTTYADSVKGRFTISRDNAKNTVYLQMNSLKPEDTAVYYCNADGWSFPSFSPMDYWGQGTQVTVSS | low polyreactivity
QVQLVESGGGLVQAGGSLRLSCAASGRNLYYNAMGWYRHAPGKERELVAAITFRGGSTSYADSVKGRFTISRDNAKNTVYLQMNSLKPEDTAVYYCAAGYTWRQSWYPFDYWGQGTQVTVSS | high polyreactivity
QVQLVESGGGLVQAGGILRLSCAASGNIFDRYAMGWYSQAPGKERELVAGMTWSGGSTYYADSVKWRFTISRDNAKNTVYLQMNSLKPEDTAVYYCGQANYYWGQGTQVTVSS | low polyreactivity
QVQLVESGGGLVQAGGSLRLSCAASGSIFNKNTMGWYRQAPGKERELVAAISGRTGITTYADSVKGRFTISRDNAKNTVYLQMNSLKPEDTAVYYCNAANRWRGSYDYWGQGTQVTVSS | high polyreactivity
QVQLVESGGGLVQAGGSLRLSCAASGRIFVYYTMGWYRQAPGKERELVAAITGSGGSTYYADSVKGRFTISRDNAKNTVYLQMNSLKPEDTAVYYCAARYASTGGGYKYYYWGQGTQVTVSS | high polyreactivity
QVQLVESGGGLVQAGGSLRLSCAASGSTFTRNAMGWYRQAPGKERELVAAITSSGGSTYYADSVKGRFTISRDNAKITVYLQMNSLKPEDTAVYYCAAYPHRPRDRELDHWGQGTQVTVSS | low polyreactivity
QVQLVESGVGLVQAGGSLRLSCAASGRTFDLYAMGWYRQAPGKERELVAAITKGGGSTYYADSVKGRFTISRDNAKNTVYLQMNSLKPEDTAVYYCAARKYKRIYRISSGIGYYWGQGTQVTVSS | high polyreactivity
QVQLVESGGGLVQAGGSLRLSCAASGINFSYYAMGWYRQAPGKERELVAAIRENGGSTYYADSVKGRFTISRDNAKNTVYLQMNSLKPEDTAVYYCAVDTTYYAGYEYDYWGQGTQVTVSS | low polyreactivity
